The target in this assay is SARS-CoV-2 spike receptor-binding domain (amino acids 333–529), bacteria-expressed and refolded (SARS-CoV-2, parental (WT) RBD, UniProt P0DTC2). As to the kind of experiment: SPR. The settings on record: both partners purified.

B1: sybody Sb68 (VHH)
VHH: QVQLVESGGGSVQAGGSLRLSCAASGSISSITYLGWFRQAPGKEREGVAALITVNGHTYYADSVKGRFTVSLDNAKNTVYLQMNSLKPEDTALYYCAAAAWGYAWPLHQDDYWYWGQGTQVTVSA
For B1, the Kd fell in the range of 0.0068 to 0.0627 µM.

For orientation: Kd means the concentration at which binding is half-saturated.

The values above are taken from paper PMC8444450 (The Journal of Biological Chemistry, 2021).
